This assay concerns the target DnaJ heat shock protein family (Hsp40) member B6 (DNAJB6), wild type (human) (UniProt O75190). Kind of assay: native MS; 37 μM DNAJB6 (plain or BS3-crosslinked) with 1 μM Aβ(1–40), 10 mM ammonium acetate pH 7; direct detection of DNAJB6 signals and complexes.

Among the data in publication PMC7294096 are stoichiometry N values, retold here.

As a reminder, the stoichiometry N is a count of units in the complex or per binding partner.

“And” between values parts separate entries of the source, which are not always exact repeats. Equal values may be shown once.

DnaJ heat shock protein family (Hsp40) member B6 (DNAJB6), wild type, O75190-2 1-241 (natural protein; other documents disagree on this pair), sequence (O75190 other isoform, or with tags, fused parts or gaps): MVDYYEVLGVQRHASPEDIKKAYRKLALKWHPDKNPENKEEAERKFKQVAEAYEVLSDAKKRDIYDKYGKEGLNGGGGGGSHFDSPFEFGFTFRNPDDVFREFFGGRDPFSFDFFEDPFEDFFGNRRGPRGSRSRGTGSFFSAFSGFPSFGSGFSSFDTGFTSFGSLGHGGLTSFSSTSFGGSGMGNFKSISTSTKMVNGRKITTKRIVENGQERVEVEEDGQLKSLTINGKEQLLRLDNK

Take “DnaJ heat shock protein family (Hsp40) member B6 (DNAJB6), wild type, O75190-2 1-241 (natural protein; other documents disagree on this pair)”: the stoichiometry N is 2 and 3.
